Results reported in publication PMC5573372, “Solvent Assisted Tuning of Morphology of a Peptide-Perylenediimide Conjugate: Helical Fibers to Nano-Rings and their Differential Semiconductivity” (Scientific Reports, 2017).

Assay: Solubility of P-1 in water and THF
Assay type: physicochemical
Settings: method not described

O=C(O)[C@H](Cc1ccccc1)NC(=O)[C@H](Cc1ccccc1)N1C(=O)c2ccc3c4ccc5c6c(ccc(c7ccc(c2c37)C1=O)c64)C(=O)N([C@@H](Cc1ccccc1)C(=O)N[C@@H](Cc1ccccc1)C(=O)O)C5=O [P-1]
solubility in THF (THF (good solvent)): ~ 0.1 mM
solubility (water (poor solvent)): < 0.1 µM
